The values that follow come from patent US20200095590A1, “TRANSCRIPTION SYSTEM” (AUTOLUS LIMITED, priority 2016, published 2020).

The test system of assay [1] is T cells. Description: Phenotype assay: memory markers by flow cytometry on CAR-TF T cells after co-culture with CD19 positive SKOV3 target cells. The conditions noted are these: for proportion of naive and central memory cells (CM): co-expressed with anti-CD19 CAR (HD37), day 0 (post-transduction) and day 7 (6 days after 24 hour co-culture), CD4+ and CD8+ subpopulations; for CD62L expression / CD27 expression: co-expressed with CAR (HD37). Type of assay: cell-based. The text has this:
A bicistronic construct was expressed in BW5 T cells as a single transcript which self-cleaves at the 2A site to yield a chimeric antigen receptor (CAR); and a transcription factor (TF). Control constructs were also generated which lack the 2A site and the transcription factor (“CAR-only”) or lack the CAR and 2A site (“TF-only”).
The CAR was an anti-CD19 CAR comprising an endodomain derived from CD3 zeta and from the co-stimulatory receptor 41BB.
T cells expressing the various CAR-TF combinations, together with the relevant CAR-only and TF-only controls were co-cultured with CD19 positive SKOV3 target cells for 24 hours before recovering and culturing the T cells until day 7. The expression of the following memory markers was analysed by flow cytometry at day 0 of the co-culture and day 7, to see whether cells expressing factors that bias them towards central memory are more nave post-transduction and remain more nave upon stimulation with antigen-bearing target cells.
Memory Markers—CCR7, CD45RA, CD62L, CD27
The cells were gated on CAR-expression (via RQR8 transduction marker) and various T cell and T-cell subset markers (CD3 and CD8) depending on the sub-population of interest.

Assay [2] has as its target streptavidin (Streptomyces avidinii, UniProt P22629). Particulars: biotin mimicking peptide binding streptavidin; read-out: affinity; cited from earlier work.
Setting [3] is: 6 days after a 24 hour co-culture with target cells, CD4+ and CD8+ T cells.

Sequence of streptavidin (P22629 25-183): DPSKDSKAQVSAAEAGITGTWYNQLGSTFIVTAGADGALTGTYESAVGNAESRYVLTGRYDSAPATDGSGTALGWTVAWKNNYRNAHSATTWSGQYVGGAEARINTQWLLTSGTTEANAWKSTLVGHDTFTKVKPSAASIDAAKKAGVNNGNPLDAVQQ

Regarding “BACH2 S520A: mutant Bach2 with S to A substitution at position 520 (SEQ ID No. 9), co-expressed with anti-CD19 CAR”, the “proportion of naive and central memory cells (CM)” value (“proportion” below) in assay [1] is “increase in the proportion of nave and central memory cells (CM)”. As to “biotin mimicking peptide WSHPQFEK (SEQ ID NO: 29) [streptagII]”, the Kd in assay [2] was 72000 nM. For “biotin mimicking peptide DVEAWLGAR (SEQ ID NO: 27) (Biotin mimicking peptide, short nanotag)”, the Kd in assay [2] is 17 nM. With “BACH2: Bach2 wild type transcription factor (SEQ ID No. 8), co-expressed with anti-CD19 CAR in T cells”, the “proportion” value in assay [1] was “increase in the proportion of nave and central memory cells (CM)”.

Take “biotin mimicking peptide CHPQGPPC (SEQ ID NO: 31) [ccstreptag]”: the Kd in assay [2] was 230 nM. On to “biotin mimicking peptide DVEAWLDERVPLVET (SEQ ID NO: 26) (Biotin mimicking peptide, long nanotag)”, for which the Kd in assay [2] is 3.6 nM.

With “Runx3 and CBFbeta: transcription factors Runx3 (SEQ ID No. 13) and CBF beta (SEQ ID No. 22), co-expressed with anti-CD19 CAR in T cells”, the CD62L expression result in assay [1] (after transduction (day 0) and 6 days after the 24 hour co-culture) is given as “upregulation of CD62L”.

B1: EOMES: Eomesodermin transcription factor (SEQ ID No. 11), co-expressed with anti-CD19 CAR in T cells (protein, UniProt O95936 1-686, looked up)
Eomesodermin homolog: MQLGEQLLVSSVNLPGAHFYPLESARGGSGGSAGHLPSAAPSPQKLDLDKASKKFSGSLSCEAVSGEPAAASAGAPAAMLSDTDAGDAFASAAAVAKPGPPDGRKGSPCGEEELPSAAAAAAAAAAAAAATARYSMDSLSSERYYLQSPGPQGSELAAPCSLFPYQAAAGAPHGPVYPAPNGARYPYGSMLPPGGFPAAVCPPGRAQFGPGAGAGSGAGGSSGGGGGPGTYQYSQGAPLYGPYPGAAAAGSCGGLGGLGVPGSGFRAHVYLCNRPLWLKFHRHQTEMIITKQGRRMFPFLSFNINGLNPTAHYNVFVEVVLADPNHWRFQGGKWVTCGKADNNMQGNKMYVHPESPNTGSHWMRQEISFGKLKLTNNKGANNNNTQMIVLQSLHKYQPRLHIVEVTEDGVEDLNEPSKTQTFTFSETQFIAVTAYQNTDITQLKIDHNPFAKGFRDNYDSSHQIVPGGRYGVQSFFPEPFVNTLPQARYYNGERTVPQTNGLLSPQQSEEVANPPQRWLVTPVQQPGTNKLDISSYESEYTSSTLLPYGIKSLPLQTSHALGYYPDPTFPAMAGWGGRGSYQRKMAAGLPWTSRTSPTVFSEDQLSKEKVKEEIGSSWIETPPSIKSLDSNDSGVYTSACKRRRLSPSNSSNENSPSIKCEDINAEEYSKDTSKGMGGYYAFYTTP
modifications: co-expressed with anti-CD19 CAR
Turning to B1, in assay [1] (setting [3]), the CD27 expression entry is “significant upregulation of CD27” and the CD62L expression entry is “do not show significant up-regulation of CD62L”.

B2: FOXO1: Forkhead box protein O1 transcription factor (SEQ ID No. 12), co-expressed with anti-CD19 CAR in T cells (protein, listed as Homo sapiens)
chain: MAEAPQVVEIDPDFEPLPRPRSCTWPLPRPEFSQSNSATSSPAPSGSAAANPDAAAGLPSASAAAVSADFMSNLSLLEESEDFPQAPGSVAAAVAAAAAAAATGGLCGDFQGPEAGCLHPAPPQPPPPGPLSQHPPVPPAAAGPLAGQPRKSSSSRRNAWGNLSYADLITKAIESSAEKRLTLSQIYEWMVKSVPYFKDKGDSNSSAGWKNSIRHNLSLHSKFIRVQNEGTGKSSWWMLNPEGGKSGKSPRRRAASMDNNSKFAKSRSRAAKKKASLQSGQEGAGDSPGSQFSKWPASPGSHSNDDFDNWSTFRPRTSSNASTISGRLSPIMTEQDDLGEGDVHSMVYPPSAAKMASTLPSLSEISNPENMENLLDNLNLLSSPTSLTVSTQSSPGTMMQQTPCYSFAPPNTSLNSPSPNYQKYTYGQSSMSPLPQMPIQTLQDNKSSYGGMSQYNCAPGLLKELLTSDSPPHNDIMTPVDPGVAQPNSRVLGQNVMMGPNSVMSTYGSQASHNKMMNPSSHTHPGHAQQTSAVNGRPLPHTVSTMPHTSGMNRLTQVKTPVQVPLPHPMQMSALGGYSSVSSCNGYGRMGLLHQEKLPSDLDGMFIERLDCDMESIIRNDLMDGDTLDFNFDNVLPNQSFPHSVKTTTHSWVSG
As for B2, in assay [1] (setting [3]), the CD27 expression result is “upregulation of CD27, especially on CD8+ cells” and the CD62L expression result was “significant upregulation of CD62L”. The “proportion” value in assay [1] is “greater proportion of nave and central memory cells (CM)”.
